Results published in patent publication US20230265151A1, “GIP/GLP1 CO-AGONIST COMPOUNDS” (priority 2020, published 2023).
Residue numbers refer to the chain shown, from its start.

T1: human GIP receptor (human) (UniProt P48546)
T1 sequence (looked up): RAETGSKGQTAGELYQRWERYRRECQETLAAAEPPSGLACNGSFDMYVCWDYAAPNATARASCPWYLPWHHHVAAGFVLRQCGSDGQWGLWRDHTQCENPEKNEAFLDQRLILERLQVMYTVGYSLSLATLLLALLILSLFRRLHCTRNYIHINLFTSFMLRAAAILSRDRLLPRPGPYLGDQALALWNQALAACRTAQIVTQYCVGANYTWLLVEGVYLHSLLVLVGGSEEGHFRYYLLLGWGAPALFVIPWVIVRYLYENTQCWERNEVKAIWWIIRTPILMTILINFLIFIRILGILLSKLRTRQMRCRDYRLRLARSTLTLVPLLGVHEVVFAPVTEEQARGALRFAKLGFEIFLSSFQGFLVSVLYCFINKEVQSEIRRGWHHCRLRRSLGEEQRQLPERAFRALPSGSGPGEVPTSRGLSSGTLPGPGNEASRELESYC

T2: human GIP receptor (human, UniProt P48546 22-466)
T2 sequence (looked up): T1 sequence (looked up)

B1: Example 422 (peptide)
peptide: YXEGTXTSDXXIXLDXKAQXKFIXXLIEGGPSSGAPPPS
modifications: Y-Aib-EGT-αMeF(2F)-TSD-4Pal-Aib-I-αMeL-LD-Orn-K((2-[2-(2-Amino-ethoxy)-ethoxy]-acetyl)3-(γ-Glu)-CO-(CH2)10-CH3)AQ-Aib-K((2-[2-(2-Amino-ethoxy)-ethoxy]-acetyl)3-(γ-Glu)-CO-(CH2)10-CH3)FI-(D-Glu)-αMeY-LIEGGPSSGAPPPS-NH2
B2: Example 430 (peptide)
peptide: B1 peptide with F22X
modifications: not fully specified; Y-Aib-EGT-αMeF(2F)-TSD-4Pal-Aib-I-αMeL-LD-Orn-K((2-[2-(2-Amino-ethoxy)-ethoxy]-acetyl)2-(γ Glu)-CO-(CH2)10H3)AQ-Aib-K((2-[2-(2-Amino-ethoxy)-ethoxy]-acetyl)2-(γGlu)-CO-(CH2)10C3)-αMeFI-(D-Glu)-αMeY-LIEGGPSSGAPPPS-NH2
B3: Example 488 (peptide)
peptide: B1 peptide with K17Q, E28K
modifications: Y-Aib-EGT-αMeF(2F)-TSD-4Pal-Aib-I-αMeL-LD-Orn-QAQ-Aib-K((2-[2-(2-Amino-ethoxy)-ethoxy]-acetyl)2-(γ-Glu)-CO-(CH2)12-CO2H)FI-(D-Glu)-αMeY-LIK((2-[2-(2-Amino-ethoxy)-ethoxy]-acetyl)2-(γ-Glu)-CO-(CH2)12-CO2H)GGPSSGAPPPS-NH2
B4: Example 432 (peptide)
peptide: B1 peptide with X10K, K21X
modifications: Y-Aib-EGT-αMeF(2F)-TSDK((2-[2-(2-Amino-ethoxy)-ethoxy]-acetyl)3-(γ-Glu)-CO-(CH2)10-CH3)-Aib-I-αMeL-LD-Orn-K((2-[2-(2-Amino-ethoxy)-ethoxy]-acetyl)3-(γ-Glu)-CO-(CH2)10-CH3)AQ-Aib-Orn-FI-(D-Glu)-αMeY-LIEGGPSSGAPPPS-NH2
B5: Example 429 (peptide)
peptide: B1 peptide with X10K, K21E, F22X
modifications: Y-Aib-EGT-αMeF(2F)-TSDK((2-[2-(2-Amino-ethoxy)-ethoxy]-acetyl)2-(γ-Glu)-CO-(CH2)10-CH3)-Aib-I-αMeL-LD-Orn-K((2-[2-(2-Amino-ethoxy)-ethoxy]-acetyl)2-(γ-Glu)-CO-(CH2)10-CH3)AQ-Aib-E-αMeF-I-(D-Glu)-αMeY-LIEGGPSSGAPPPS-NH2
B6: Example 437 (peptide)
peptide: B1 peptide with F22X
modifications: Y-Aib-EGT-αMeF(2F)-TSD-4Pal-Aib-I-αMeL-LD-Orn-K((2-[2-(2-Amino-ethoxy)-ethoxy]-acetyl)3-(γ-Glu)-CO-(CH2)10-CH3)AQ-Aib-K((2-[2-(2-Amino-ethoxy)-ethoxy]-acetyl)3-(γ-Glu)-CO-(CH2)10-CH3)-αMeF-I-(D-Glu)-αMeY-LIEGGPSSGAPPPS-NH2
B7: Example 438 (peptide)
peptide: B1 peptide with K21E, F22X, E28K
modifications: Y-Aib-EGT-αMeF(2F)-TSD-4Pal-Aib-I-αMeL-LD-Orn-K((2-[2-(2-Amino-ethoxy)-ethoxy]-acetyl)3-(γ-Glu)-CO-(CH2)10-CH3)AQ-Aib-E-αMeF-I-(D-Glu)-αMeY-LIK((2-[2-(2-Amino-ethoxy)-ethoxy]-acetyl)3-(γ-Glu)-CO-(CH2)10-CH3)GGPSSGAPPPS-NH2
B8: Example 426 (peptide)
peptide: B1 peptide
modifications: Y-Aib-EGT-αMeF(2F)-TSD-4Pal-Aib-I-αMeL-LD-Orn-K((2-[2-(2-Amino-ethoxy)-ethoxy]-acetyl)-(γ-Glu)-CO-(CH2)10-CH3)AQ-Aib-K((2-[2-(2-Amino-ethoxy)-ethoxy]-acetyl)-(γ-Glu)-CO-(CH2)10-CH3)FI-(D-Glu)-αMeY-LIEGGPSSGAPPPS-NH2
B9: Example 434 (peptide)
peptide: B1 peptide with K21X, E28K
modifications: Y-Aib-EGT-αMeF(2F)-TSD-4Pal-Aib-I-αMeL-LD-Orn-K((2-[2-(2-Amino-ethoxy)-ethoxy]-acetyl)3-(γ-Glu)-CO-(CH2)10-CH3)AQ-Aib-Orn-FI-(D-Glu)-αMeY-LIK((2-[2-(2-Amino-ethoxy)-ethoxy]-acetyl)3-(γ-Glu)-CO-(CH2)10-CH3)GGPSSGAPPPS-NH2
B10: Example 436 (peptide)
peptide: B1 peptide with X10K, K21E, F22X
modifications: Y-Aib-EGT-αMeF(2F)-TSDK((2-[2-(2-Amino-ethoxy)-ethoxy]-acetyl)3-(γ-Glu)-CO-(CH2)10-CH3)-Aib-I-αMeL-LD-Orn-K((2-[2-(2-Amino-ethoxy)-ethoxy]-acetyl)3-(γ-Glu)-CO-(CH2)10-CH3)AQ-Aib-E-αMeF-I-(D-Glu)-αMeY-LIEGGPSSGAPPPS-NH2
B11: Example 445 (peptide)
peptide: B1 peptide with X10K, X16G, K21E
modifications: Y-Aib-EGT-αMeF(2F)-TSDK((2-[2-(2-Amino-ethoxy)-ethoxy]-acetyl)2-(γ-Glu)-CO-(CH2)10-CH3)-Aib-I-αMeL-LDGK((2-[2-(2-Amino-ethoxy)-ethoxy]-acetyl)2-(γ-Glu)-CO-(CH2)10-CH3)AQ-Aib-EFI-(D-Glu)-αMeY-LIEGGPSSGAPPPS-NH2
B12: Example 424 (peptide)
peptide: YXEGTXTSDXXIXLDXKAQXEFIXXLIEGGPSSGAPPPSK
modifications: Y-Aib-EGT-αMeF(2F)-TSD-4Pal-Aib-I-αMeL-LD-Orn-K((2-[2-(2-Amino-ethoxy)-ethoxy]-acetyl)3-(γ-Glu)-CO-(CH2)10-CH3)AQ-Aib-EFI-(D-Glu)-αMeY-LIEGGPSSGAPPPSK((2-[2-(2-Amino-ethoxy)-ethoxy]-acetyl)3-(γ-Glu)-CO-(CH2)10-CH3)-NH2
B13: Example 431 (peptide)
peptide: B12 peptide with F22X
modifications: not fully specified; Y-Aib-EGT-αMeF(2F)-TSD-4Pal-Aib-I-αMeL-LD-Orn-K((2-[2-(2-Amino-ethoxy)-ethoxy]-acetyl)2-(γ Glu)-CO-(CH2)10C3)AQ-Aib-E-αMeF-I-(D-Glu)-αMeY-LIEGGPSSGAPPPSK((2-[2-(2-Amino-ethoxy)-ethoxy]-acetyl)2-(γ-Glu)-CO-(CH2)10-CH3)-NH2
B14: Example 439 (peptide)
peptide: B12 peptide with F22X
modifications: Y-Aib-EGT-αMeF(2F)-TSD-4Pal-Aib-I-αMeL-LD-Orn-K((2-[2-(2-Amino-ethoxy)-ethoxy]-acetyl)3-(Y-Glu)-CO-(CH2)10-CH3)AQ-Aib-E-αMeF-I-(D-Glu)-αMeY-LIEGGPSSGAPPPSK((2-[2-(2-Amino-ethoxy)-ethoxy]-acetyl)3-(γ-Glu)-CO-(CH2)10-CH3)-NH2
B15: Example 435 (peptide)
peptide: B12 peptide with E21X
modifications: Y-Aib-EGT-αMeF(2F)-TSD-4Pal-Aib-I-αMeL-LD-Orn-K((2-[2-(2-Amino-ethoxy)-ethoxy]-acetyl)3-(γ Glu)-CO-(CH2)10CH3)AQ-Aib-Orn-FI-(D-Glu)-αMeY-LIEGGPSSGAPPPSK((2-[2-(2-Amino-ethoxy)-ethoxy]-acetyl)3-(γ-Glu)-CO-(CH2)10-CH3)-NH2
B16: Example 428 (peptide)
peptide: B12 peptide
modifications: Y-Aib-EGT-αMeF(2F)-TSD-4Pal-Aib-I-αMeL-LD-Orn-K((2-[2-(2-Amino-ethoxy)-ethoxy]-acetyl)-(γ-Glu)-CO-(CH2)10-CH3)AQ-Aib-EFI-(D-Glu)-αMeY-LIEGGPSSGAPPPSK((2-[2-(2-Amino-ethoxy)-ethoxy]-acetyl)-(γ-Glu)-CO-(CH2)10-CH3)-NH2
B17: Example 489 (peptide)
peptide: B12 peptide with K17Q, E21K
modifications: Y-Aib-EGT-αMeF(2F)-TSD-4Pal-Aib-I-αMeL-LD-Orn-QAQ-Aib-K((2-[2-(2-Amino-ethoxy)-ethoxy]-acetyl)2-(γ-Glu)-CO-(CH2)12-CO2H)FI-(D-Glu)-αMeY-LIEGGPSSGAPPPSK((2-[2-(2-Amino-ethoxy)-ethoxy]-acetyl)2-(γ-Glu)-CO-(CH2)12-CO2H)-NH2

These binders were tested against hGLP-1R (Homo sapiens, UniProt P43220) (assay: cell-based or functional assay).

Row | Binder | cAMP EC50 [nM] | cAMP Emax [%]
1 | B1 | 0.0729 | 106
2 | B2 | 0.342 | 93.1
3 | B3 | 0.207 | 113
4 | B4 | 0.0549 | 106
5 | B5 | 0.116 | 116
6 | B6 | 0.249 | 89.2
7 | B7 | 0.471 | 88.5
8 | B8 | 0.206 | 97.2
9 | B9 | 0.0837 | 104
10 | B10 | 0.102 | 98.9
11 | B11 | 0.0781 | 103
12 | B12 | 0.0427 | 102
13 | B13 | 0.134 | 99.2
14 | B14 | 0.11 | 95.7
15 | B15 | 0.0527 | 111
16 | B16 | 0.102 | 106
17 | B17 | 0.257 | 112

Each binder was assayed against T1, human GIP receptor (human) (assay: cell-based or functional assay).

Row | Binder | cAMP EC50 [nM] | cAMP Emax [%]
18 | B1 | 0.00655 | 104
19 | B2 | 0.0175 | 107
20 | B3 | 0.0115 | 104
21 | B4 | 0.00602 | –
22 | B5 | 0.00799 | 108
23 | B6 | 0.0146 | 94.8
24 | B7 | 0.0157 | 98.9
25 | B8 | 0.0191 | 93.3
26 | B9 | 0.00704 | 98.3
27 | B10 | 0.00714 | 102
28 | B11 | 0.00728 | 102
29 | B12 | 0.00502 | 101
30 | B13 | 0.0097 | 104
31 | B14 | 0.00799 | –
32 | B15 | 0.00517 | 104
33 | B16 | 0.00797 | 95.5
34 | B17 | 0.0131 | 103

What follows are binders tested against human glucagon receptor (human) (UniProt P47871) (assay: cell-based or functional assay).

Row | Binder | cAMP EC50 [nM]
35 | B1 | > 9950
36 | B2 | > 9950
37 | B3 | > 10100
38 | B4 | > 9950
39 | B5 | > 9950
40 | B6 | > 9950
41 | B7 | > 9950
42 | B8 | > 9950
43 | B9 | > 9950
44 | B10 | > 9950
45 | B11 | > 9950
46 | B12 | > 9950
47 | B13 | > 9950
48 | B14 | > 9950
49 | B15 | > 9950
50 | B16 | > 9950
51 | B17 | > 10100

What follows are binders tested against T2, human GIP receptor (assay: cell-based or functional assay).

Row | Binder | cAMP EC50 (1.0% HSA) [nM] | cAMP Emax (1.0% HSA) [%]
52 | B1 | 0.199 | 97.5
53 | B2 | 1.09 | 91.5
54 | B3 | 0.718 | 85.5
55 | B4 | 0.0875 | –
56 | B5 | 1.03 | 93.3
57 | B6 | 0.461 | 96.5
58 | B7 | 0.592 | 90.8
59 | B8 | 3.88 | 91.2
60 | B9 | 0.0994 | 97.5
61 | B10 | 0.241 | 96
62 | B11 | 1.17 | 91.4
63 | B12 | 0.159 | –
64 | B13 | 0.645 | 98
65 | B14 | 0.396 | 91.7
66 | B15 | 0.0873 | 98.7
67 | B16 | 0.748 | –
68 | B17 | 0.578 | 79.4

What follows are binders tested against human GLP-1 receptor (human, UniProt P43220 24-463) (assay: cell-based or functional assay).

Row | Binder | cAMP EC50 (1.0% HSA) [nM] | cAMP Emax (1.0% HSA) [%]
69 | B1 | 3.84 | –
70 | B2 | 26.8 | 88.5
71 | B3 | 13 | –
72 | B4 | 1.28 | –
73 | B5 | 17.3 | –
74 | B6 | 9.65 | 91.2
75 | B7 | 28 | 88.7
76 | B8 | 29.7 | –
77 | B9 | 1.73 | –
78 | B10 | 4.98 | –
79 | B11 | 13.1 | 100
80 | B12 | 3.07 | –
81 | B13 | 17.5 | 91.6
82 | B14 | 9.25 | 97
83 | B15 | 1.63 | 97.8
84 | B16 | 10.2 | –
85 | B17 | 13.5 | 98.7

The binders below were run against human glucagon receptor (human, UniProt P47871 26-477) (assay: cell-based or functional assay).
Chain of human glucagon receptor (P47871 26-477): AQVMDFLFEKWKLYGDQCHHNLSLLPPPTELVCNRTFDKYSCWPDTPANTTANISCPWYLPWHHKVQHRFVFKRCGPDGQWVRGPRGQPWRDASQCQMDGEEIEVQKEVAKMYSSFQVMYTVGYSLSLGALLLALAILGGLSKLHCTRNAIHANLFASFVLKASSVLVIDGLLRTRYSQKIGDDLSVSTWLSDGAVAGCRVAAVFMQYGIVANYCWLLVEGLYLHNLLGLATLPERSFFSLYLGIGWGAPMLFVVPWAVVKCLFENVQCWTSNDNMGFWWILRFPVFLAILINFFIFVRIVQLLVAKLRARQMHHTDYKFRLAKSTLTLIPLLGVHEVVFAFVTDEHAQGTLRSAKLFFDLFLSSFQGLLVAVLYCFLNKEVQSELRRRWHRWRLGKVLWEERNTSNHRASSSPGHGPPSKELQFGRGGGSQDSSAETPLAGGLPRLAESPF

Row | Binder | cAMP EC50 (1.0% HSA) [nM]
86 | B1 | > 9950
87 | B2 | > 9950
88 | B3 | > 9950
89 | B4 | > 9950
90 | B5 | > 9950
91 | B6 | > 9950
92 | B7 | > 9950
93 | B8 | > 9950
94 | B9 | > 9950
95 | B10 | > 9950
96 | B11 | > 9950
97 | B12 | > 9950
98 | B13 | > 9950
99 | B14 | > 9950
100 | B15 | > 9950
101 | B16 | > 9950
102 | B17 | > 9950
